± gives the uncertainty stated by the source.

The series can be described thus: amyloid nucleation score (Sup35N fusion, yeast selection) (log enrichment); library NNK2; higher = more nucleation; inactive = no reads after selection. The procedure, abridged:
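Peptides of 20 random codons, each fused to Sup35N, were expressed in psi-negative yeast. Cells were induced with 100 μM copper sulfate for 24 hours and grown 7 days at 30°C on medium lacking adenine and uracil, and plasmid inserts before and after selection were Illumina-sequenced. Nucleation scores are DiMSum log enrichments of output over input reads, centred on the mode score of non-aggregating sequences, and sequences under 100 input reads were excluded.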

RIMTPWIGRGRRAHIFLHLW: the amyloid nucleation score came to 1.06 ± 0.29.

FFDNPMHKTYSGSAARARLS came in with an amyloid nucleation score of -0.375 ± 0.24.

For the substance VGRVHSLSDYCDFGKSWFKY, the amyloid nucleation score is -0.864 ± 0.74.

With VAYYLCAGTSGDTFGKANQS, the amyloid nucleation score came out at 0.222 ± 0.8.

On to SCSSLYT, for which the amyloid nucleation score stood at 1.11 ± 0.43.

For HRFIILNIVAFE, the amyloid nucleation score came to 0.59 ± 0.28.

NGFCYFDGLSLSYSKLTGMM: the amyloid nucleation score result was “inactive”.

Substance FQGEGISTAF came in with an amyloid nucleation score of -1.32 ± 0.5.

As for YVSMLTNLTDLTSM, the amyloid nucleation score was 0.572 ± 0.33.

Substance RYRALPTMPLEMSVQGDLRV showed an amyloid nucleation score of -0.319 ± 0.25.

With ETRGNRPF, the amyloid nucleation score amounted to 0.88 ± 0.33.

As to GCKVIYIYIIHIFKCIITNW, the amyloid nucleation score entry was “inactive”.

Substance TCRHRLHVSFVYDVLRQIVT returned an amyloid nucleation score of 0.043 ± 0.21.

Consider DIFCLRPYKLPGYTFYYFVY, for which the amyloid nucleation score result was “inactive”.

For the substance NRCWGDHEV, the amyloid nucleation score worked out at 0.435 ± 0.39.

Substance LGRCSALGYIRISCTMKGAG yielded an amyloid nucleation score of 0.21 ± 0.74.

In turn, IGIMQMIYFVD showed an amyloid nucleation score of 5.79 ± 0.068.

The substance SDFMTKYHHL showed an amyloid nucleation score of 3.33 ± 0.058.

Regarding TFYSSWWSNSECYCS, the amyloid nucleation score was determined as 2.45 ± 0.1.

As to WILGKFTDKFRSSRHRRNRA, the amyloid nucleation score came to 0.787 ± 0.25.

For ATGMIPVNLQATIWEVHEVG, the amyloid nucleation score is 2.68 ± 0.21.

WHCNFMHWVHKR had an amyloid nucleation score of 6.383 ± 0.06.

As to RCGASSCNRLGPPMLNNRAM, the amyloid nucleation score is -1.6 ± 0.75.

As to WVDNRWEVSLSWAGYTIF, the amyloid nucleation score entry is “inactive”.

In turn, LSLLVSLTRTMFNLNNTCTA displayed an amyloid nucleation score of -0.17 ± 0.65.

Consider YLEMMYVAFNFFNGIYCLFY, for which the amyloid nucleation score entry was “inactive”.

Take FSSLIKTICLMTAMAEGMSP: the amyloid nucleation score was -0.258 ± 0.76.

SILDVCVSVT gave an amyloid nucleation score of -0.641 ± 0.55.

Consider FWKNYQIMMRMCDKHVIEDV, for which the amyloid nucleation score stood at 2.95 ± 0.11.

In turn, RSMFDWYKCILHDLISLQSR showed an amyloid nucleation score of 0.769 ± 0.47.

For MAELLHKYGYKDAVRNIHPY, the amyloid nucleation score amounted to 0.641 ± 0.62.

The substance SWLFRYYVERVNDVRG yielded an amyloid nucleation score of 0.191 ± 0.65.

DFYSNYILLRSSP: the amyloid nucleation score is -1.84 ± 1.

Consider SIKPVLVSDFEKAV, for which the amyloid nucleation score is 0.661 ± 0.49.

For AYPVES, the amyloid nucleation score turned out to be 1.19 ± 0.23.

Turning to TMLEFNCSYLNI, the amyloid nucleation score was 2.98 ± 0.083.

Substance QYVPVLGPACMQLMRYNCAD came in with an amyloid nucleation score of -0.177 ± 0.4.

Substance ILCYMVGSRIMCVEHSGC returned an amyloid nucleation score of 8.588 ± 0.064.

Substance GVHISRVVCQN came in with an amyloid nucleation score of 0.265 ± 1.1.

On to ENCLESWTCI, for which the amyloid nucleation score was -1.08 ± 0.78.

On to SARRRINGNPCEEMNQRLAV, for which the amyloid nucleation score amounted to 1.08 ± 0.53.

HWGSVAGDFWGFVVWSRFGR yielded an amyloid nucleation score of 0.234 ± 0.34.

YFLLTFDILLCRAFGTAGPE: the amyloid nucleation score result is “inactive”.

The substance VYIYSGFVVSWLRFFGVMRP displayed an amyloid nucleation score of -0.394 ± 1.1.

With NDVNDLMGCTNQRGMYPQII, the amyloid nucleation score result was “inactive”.

Take NRNHMCRSCYMGWFRGRAKA: the amyloid nucleation score was -1.04 ± 0.42.

Turning to LYFDVTQ, the amyloid nucleation score was -0.611 ± 0.32.

The substance ITILCLNVSMVYEVGQ showed an amyloid nucleation score of 7.778 ± 0.042.

HVWGQLSCFARVALSDRSKM: the amyloid nucleation score was 3.07 ± 0.16.

AEKQVCLAQKFLNLQLIFRW gave an amyloid nucleation score of 1.72 ± 0.12.

In the case of QSAFNN, the amyloid nucleation score result is “inactive”.

VEFNNAFNNCSLLFSDPRSS gave an amyloid nucleation score of 3.34 ± 0.12.

As to YGMSRNIGAVVWHFCG, the amyloid nucleation score was -0.368 ± 1.

IDFVVIKTLGMCDITYLYM showed an amyloid nucleation score of -0.573 ± 1.1.

Substance MFSYTVSVLDLIYKSIWECE gave an amyloid nucleation score of -0.941 ± 0.35.

For TALATDTSFRRSRRQTNQIF, the amyloid nucleation score worked out at 0.706 ± 0.54.

Consider YASTRRIGLEDIVW, for which the amyloid nucleation score is -0.821 ± 0.78.

Turning to RISRFMPCSRS, the amyloid nucleation score was determined as 1.11 ± 0.52.

LYVNLRCRNYYVAVPVGDWD registered an amyloid nucleation score of 4.9 ± 0.068.

YVATMGKGLNYLSCLEDNAA: the amyloid nucleation score is 0.282 ± 0.56.

Consider VRNSSV, for which the amyloid nucleation score result was “inactive”.

For the substance IDSWCVTHATKIGSYWML, the amyloid nucleation score was found to be 0.12 ± 0.34.

Substance ISLHDRWIADPFVTACGKRY returned an amyloid nucleation score of 0.386 ± 0.19.

On to LFECMPYGLNAKDSCADSNV, for which the amyloid nucleation score was -0.303 ± 0.5.

The substance GYIYPNRIHNLYVGTMSVTV yielded an amyloid nucleation score of 5.43 ± 0.093.

SLSFIGQIQSIITNRLNSGV gave an amyloid nucleation score of 5.876 ± 0.039.

As for SAGGVSPFP, the amyloid nucleation score is -0.659 ± 0.63.

Regarding YILCYTVNCNAELSHLVCDI, the amyloid nucleation score is 7.154 ± 0.058.

The substance KKAVSACPLEYSVVINISGG displayed an amyloid nucleation score of 7.985 ± 0.026.

As to NARVL, the amyloid nucleation score was -0.853 ± 0.64.

IDVLYCHDSL displayed an amyloid nucleation score of 0.311 ± 0.42.

Take LWNWRACARLG: the amyloid nucleation score is 1.25 ± 0.24.

Substance CRHYKFV came in with an amyloid nucleation score of -0.097 ± 1.1.

In turn, RLVIGT came in with an amyloid nucleation score of 2.41 ± 0.11.

IPSCRVFICRGNNVFRVPIT yielded an amyloid nucleation score of -1.06 ± 1.1.

For CSFCRPFVTCILIRSKVCGW, the amyloid nucleation score is 1.21 ± 0.11.

In the case of PVRGE, the amyloid nucleation score came out at 0.089 ± 0.8.

For the substance SLSPIYDDLASVVAGTYEIK, the amyloid nucleation score is -1.27 ± 0.75.

As for LNKQRSCFNVMGGWRKIYPS, the amyloid nucleation score is 0.783 ± 0.13.

Consider FWHLYPQCQDWSDLQN, for which the amyloid nucleation score result is “inactive”.

Substance FNVNRLAVLSYVSSWSGVIM displayed an amyloid nucleation score of -0.772 ± 0.35.

For the substance FYATYSSLRLGVVTIIPPGL, the amyloid nucleation score is 4.49 ± 0.087.

NCYRLWWPVLSTWWRFFI came in with an amyloid nucleation score of 0.047 ± 0.35.

As to DVLLVLHVIWCICYPLGVVS, the amyloid nucleation score turned out to be 0.429 ± 0.4.

As for DHLNV, the amyloid nucleation score is -0.401 ± 0.63.

ERSVDYSLTL showed an amyloid nucleation score of -0.43 ± 0.45.

In turn, ATTFKPAHLSRYMWLATYPV displayed an amyloid nucleation score of 0.765 ± 0.41.

With EIWRFLQHRGIYYFFWSFEK, the amyloid nucleation score result is “inactive”.

With AYYYWLGG, the amyloid nucleation score is -0.381 ± 1.1.

The substance GNLLVGAKSMVLSRFIGLYR had an amyloid nucleation score of 2.16 ± 0.23.

In the case of FCKHFYVLREHIKWADSFLM, the amyloid nucleation score result was “inactive”.

On to YISFSDEVFV, for which the amyloid nucleation score result is “inactive”.

Regarding VGGFRGRVTSHSPMRMCIQR, the amyloid nucleation score is -0.114 ± 1.

RVYIFTCYGSSV: the amyloid nucleation score amounted to 7.997 ± 0.074.

In the case of DYGWKLMVKVDWFLNGHQ, the amyloid nucleation score is 4.39 ± 0.048.

For the substance RRAILWPNGAN, the amyloid nucleation score was 0.097 ± 0.37.

Take SFRLQIRV: the amyloid nucleation score was -0.417 ± 0.23.

Substance VDANIHWTCNSG displayed an amyloid nucleation score of 0.322 ± 0.38.

For GIMYGEFMPLR, the amyloid nucleation score entry was “inactive”.

For the substance KRSVVKNLG, the amyloid nucleation score came to 0.157 ± 0.29.

Substance CLLLRVTR showed an amyloid nucleation score of 0.015 ± 0.27.

As for DNDMG, the amyloid nucleation score was -0.267 ± 0.25.

Substance TRSRKWHRGS displayed an amyloid nucleation score of 1.14 ± 0.32.

NTIMFEFICSIGITVYD came in with an amyloid nucleation score of 1.33 ± 0.21.

YSASKFTWPCIKTSKCGALC had an amyloid nucleation score of -1.09 ± 0.63.

NYILRQAGEMFGLLGDFGDG yielded an amyloid nucleation score of -0.165 ± 0.45.

RLTFSSIVTGGLQFKTLL yielded an amyloid nucleation score of 2.75 ± 0.1.

The substance HDRWNWGDCFVIDHALLLMG gave an amyloid nucleation score of 0.393 ± 0.31.

The substance DCHEGRTNPRALKCFTEERG had an amyloid nucleation score of 0.173 ± 1.1.

As to RVMRLGTLEDNWGDHGLSSR, the amyloid nucleation score is -0.583 ± 0.44.

Take RAQRLP: the amyloid nucleation score was -0.241 ± 0.55.

Turning to NGVPT, the amyloid nucleation score is -1.43 ± 1.1.

As for HINMIGWEFSVGYGWQ, the amyloid nucleation score stood at 4.9 ± 0.061.

Consider SILSRCIRQVLFREPDVWRS, for which the amyloid nucleation score is -0.32 ± 0.48.

For the substance YMKKSMF, the amyloid nucleation score was -0.095 ± 1.1.

Turning to LHHYAFFSHM, the amyloid nucleation score entry was “inactive”.

FIAFVYNL registered an amyloid nucleation score of 1.95 ± 0.091.

Turning to VSTRSLF, the amyloid nucleation score entry is “inactive”.

For the substance MVVYRVPMAQLLPS, the amyloid nucleation score result is “inactive”.

The substance WSMCFMPVRWSFSGTIYMHK had an amyloid nucleation score of 0.472 ± 0.56.

ACLGHSLAVVRTMTDSRKRL came in with an amyloid nucleation score of 0.367 ± 0.74.

The substance DRAVRQFIFLVYGSSLDWDI registered an amyloid nucleation score of 0.044 ± 0.79.

As for CSWVRSLYNGIVLKKH, the amyloid nucleation score is -0.652 ± 0.45.

As to IRDWHWTNVGSCNCCFFCQG, the amyloid nucleation score worked out at 9.244 ± 0.079.

Substance HYGNSWY yielded an amyloid nucleation score of 0.958 ± 0.48.

GKILVAFLWPISCVR registered an amyloid nucleation score of 0.037 ± 0.65.

In the case of YCYLMMEAWHMEANWYHCFV, the amyloid nucleation score was -0.209 ± 0.2.

RWMRTSAGGCGSKVVWNLLG: the amyloid nucleation score stood at 0.682 ± 0.24.

In the case of NTTMWGHVYMHLANMYTEFC, the amyloid nucleation score result was “inactive”.

For the substance NKMEDHGMWDLIAYRGVIPL, the amyloid nucleation score was -0.269 ± 0.22.

On to YCFMVRFRYGPLREMTNCSK, for which the amyloid nucleation score was -0.34 ± 0.62.

Take NEEWSFCKS: the amyloid nucleation score is -0.165 ± 1.

The substance VVLFWLNCRRVYFLGSKYRA returned an amyloid nucleation score of 0.331 ± 0.8.

In the case of WMRFYSYNGIY, the amyloid nucleation score is -1.26 ± 1.1.

The substance KPCSGIRVCIDLCYPP had an amyloid nucleation score of 0.383 ± 0.74.

Turning to MWNQDLSFFCITRDIKVCTF, the amyloid nucleation score was 4.87 ± 0.06.

Consider LCSFAMKLVCNRVMAFDIES, for which the amyloid nucleation score stood at 1.68 ± 0.19.

Consider TTSQFGLGGICPDNSTGLLA, for which the amyloid nucleation score was -1.31 ± 1.

Substance FWSDSVVFRPDTVRLERSLG came in with an amyloid nucleation score of 0.025 ± 1.1.

Turning to TGHLEEMYKYDALYSSAKRA, the amyloid nucleation score turned out to be 1 ± 0.48.

As for VWPTMCTVFAMF, the amyloid nucleation score turned out to be 2.51 ± 0.065.

For YCLSDKWTLCG, the amyloid nucleation score amounted to 0.367 ± 0.41.
